Columns and labels:
Assay in all cases: cell-based or functional assay
[1] = biological target: Env of HIV-1 pseudovirus 0260.v5.c36 (HIV-1)
[2] = biological target: Env of HIV-1 pseudovirus SC05_8C11_2344 (HIV-1)
[3] = biological target: Env of HIV-1 pseudovirus CNE52 (HIV-1)
[4] = biological target: Env of HIV-1 pseudovirus Du422.1 (HIV-1)
[5] = biological target: Env of HIV-1 pseudovirus ZM53M.PB12 (HIV-1)
[6] = biological target: Env of HIV-1 pseudovirus T250-4 (HIV-1)
[7] = biological target: Env of HIV-1 pseudovirus 6535.3 (HIV-1)
[8] = biological target: Env of HIV-1 pseudovirus Q769.d22 (HIV-1)
[9] = biological target: Env of HIV-1 pseudovirus 9004SS_A3_4 (HIV-1)
[10] = biological target: HIV-1 Env pseudovirus TRJO4551.58 (HIV-1)
[11] = biological target: HIV-1 Env pseudovirus 211-9 (HIV-1)
[12] = biological target: HIV-1 Env pseudovirus 6545.v4.c1 (HIV-1)
[13] = biological target: HIV-1 Env pseudovirus Ce703010054_2A2 (HIV-1)
[14] = biological target: HIV-1 Env pseudovirus TRO.11 (HIV-1)
[15] = biological target: HIV-1 Env pseudovirus Du156.12 (HIV-1)
[16] = biological target: HIV-1 Env pseudovirus 7030102001E5(Rev-) (HIV-1)
[17] = biological target: HIV-1 Env pseudovirus 0815.v3.c3 (HIV-1)
[18] = biological target: HIV-1 Env pseudovirus X2131_C1_B5 (HIV-1)
[19] = biological target: HIV-1 Env pseudovirus WEAU_d15_410_787 (HIV-1)
[20] = biological target: HIV-1 Env pseudovirus ZM249M.PL1 (HIV-1)
[21] = biological target: HIV-1 Env pseudovirus HIV-16845-2.22 (HIV-1)
[22] = biological target: HIV-1 Env pseudovirus Q769.d22 (HIV-1)
[23] = biological target: HIV-1 Env pseudovirus ZM197M.PB7 (HIV-1)
[24] = biological target: HIV-1 Env pseudovirus ZM233M.PB6 (HIV-1)
[25] = biological target: HIV-1 Env pseudovirus Ce0393_C3 (HIV-1)
[26] = biological target: HIV-1 Env pseudovirus R3265.c06 (HIV-1)
[27] = biological target: HIV-1 Env of pseudovirus Q769.d22 (HIV-1)
[28] = biological target: HIV-1 Env pseudovirus C4118.c09 (HIV-1)
[29] = biological target: HIV-1 Env of pseudovirus Ce0682_E4 (HIV-1)
[30] = biological target: HIV-1 Env of pseudovirus WITO4160.33 (HIV-1)
[31] = biological target: HIV-1 Env of pseudovirus PVO.4 (HIV-1)
[32] = biological target: HIV-1 Env pseudovirus BJOX028000.10.3 (HIV-1)
[33] = biological target: HIV-1 Env of pseudovirus HIV-16845-2.22 (HIV-1)
[34] = biological target: HIV-1 Env of pseudovirus 1054_07_TC4_1499 (HIV-1)
[35] = biological target: HIV-1 Env of pseudovirus BF1266.431a (HIV-1)
[36] = biological target: HIV-1 Env of pseudovirus Ce1086_B2 (HIV-1)
[37] = biological target: HIV-1 Env pseudovirus BJOX015000.11.5 (HIV-1)
[38] = biological target: HIV-1 Env pseudovirus CNE17 (HIV-1)

## 10-1074 (antibody)
[1]
  IC50: 0.099 µg/mL
  IC80: 0.16 µg/mL
[2]
  IC50: 0.052 µg/mL
  IC80: 0.123 µg/mL
[3]
  IC50: 1.23 µg/mL
  IC80: 13.1 µg/mL
[4]
  IC50: 0.045 µg/mL
  IC80: 0.166 µg/mL
[5]
  IC50: > 50 µg/mL
  IC80: > 50 µg/mL
[6]
  IC50: < 0.001 µg/mL
  IC80: 0.005 µg/mL
[7]
  IC50: 0.014 µg/mL
  IC80: 0.026 µg/mL
[8]
  IC50: > 50 µg/mL
  IC80: > 50 µg/mL
[9]
  IC50: 0.011 µg/mL
  IC80: 0.03 µg/mL

## VRC01 (antibody)
[10]
  IC50 (Titer in TZM.bl cells): 0.08 µg/mL
  IC80 (Titer in TZM.bl cells): 0.21 µg/mL
[11]
  IC50 (Titer in TZM.bl cells): 14.3 µg/mL
  IC80 (Titer in TZM.bl cells): > 50 µg/mL
[12]
  IC50 (Titer in TZM.bl cells): > 50 µg/mL
  IC80 (Titer in TZM.bl cells): > 50 µg/mL
[13]
  IC50 (Titer in TZM.bl cells): 0.53 µg/mL
  IC80 (Titer in TZM.bl cells): 1.84 µg/mL
[14]
  IC50 (Titer in TZM.bl cells): 0.21 µg/mL
  IC80 (Titer in TZM.bl cells): 0.83 µg/mL
[15]
  IC50 (Titer in TZM.bl cells): 0.09 µg/mL
  IC80 (Titer in TZM.bl cells): 0.193 µg/mL
[16]
  IC50 (Titer in TZM.bl cells): 0.54 µg/mL
  IC80 (Titer in TZM.bl cells): 2.08 µg/mL
[17]
  IC50 (Titer in TZM.bl cells): 0.06 µg/mL
  IC80 (Titer in TZM.bl cells): 0.13 µg/mL
[18]
  IC50 (Titer in TZM.bl cells): 0.51 µg/mL
  IC80 (Titer in TZM.bl cells): 1.54 µg/mL
[19]
  IC50 (Titer in TZM.bl cells): 0.12 µg/mL
  IC80 (Titer in TZM.bl cells): 0.26 µg/mL
[20]
  IC50 (Titer in TZM.bl cells): 0.05 µg/mL
  IC80 (Titer in TZM.bl cells): 0.23 µg/mL
[21]
  IC50 (Titer in TZM.bl cells): 2.8 µg/mL
  IC80 (Titer in TZM.bl cells): 12.7 µg/mL
[22]
  IC50 (Titer in TZM.bl cells): 0.08 µg/mL
  IC80 (Titer in TZM.bl cells): 0.29 µg/mL
[23]
  IC50 (Titer in TZM.bl cells): 0.36 µg/mL
  IC80 (Titer in TZM.bl cells): 1.6 µg/mL
[24]
  IC50 (Titer in TZM.bl cells): 2 µg/mL
  IC80 (Titer in TZM.bl cells): 9.3 µg/mL
[25]
  IC50 (Titer in TZM.bl cells): 0.62 µg/mL
  IC80 (Titer in TZM.bl cells): 2.37 µg/mL
[26]
  IC50 (Titer in TZM.bl cells): 0.45 µg/mL
  IC80 (Titer in TZM.bl cells): 1.88 µg/mL

## PG9 (antibody)
[1]
  IC50: 1.69 µg/mL
  IC80: 9 µg/mL
[2]
  IC50: 0.892 µg/mL
  IC80: 4.28 µg/mL
[3]
  IC50: 0.029 µg/mL
  IC80: 0.081 µg/mL
[4]
  IC50: 0.614 µg/mL
  IC80: 10.4 µg/mL
[5]
  IC50: 0.069 µg/mL
  IC80: 0.221 µg/mL
[6]
  IC50: 0.005 µg/mL
  IC80: 0.014 µg/mL
[7]
  IC50: 0.176 µg/mL
  IC80: 0.627 µg/mL
[8]
  IC50: 0.025 µg/mL
  IC80: 0.068 µg/mL
[9]
  IC50: 0.088 µg/mL
  IC80: 0.251 µg/mL

## PG16 (antibody)
[1]
  IC50: 1.54 µg/mL
  IC80: 36.1 µg/mL
[2]
  IC50: 0.07 µg/mL
  IC80: 1.62 µg/mL
[3]
  IC50: 0.009 µg/mL
  IC80: 0.026 µg/mL
[4]
  IC50: 0.261 µg/mL
  IC80: 33.8 µg/mL
[5]
  IC50: 0.007 µg/mL
  IC80: 0.051 µg/mL
[6]
  IC50: 0.002 µg/mL
  IC80: 0.005 µg/mL
[7]
  IC50: 0.653 µg/mL
  IC80: > 50 µg/mL
[8]
  IC50: 0.005 µg/mL
  IC80: 0.018 µg/mL
[9]
  IC50: 0.02 µg/mL
  IC80: 0.111 µg/mL

## 10E8 (antibody)
[1]
  IC50: > 10 µg/mL
  IC80: > 10 µg/mL
[2]
  IC50: 0.665 µg/mL
  IC80: 2.74 µg/mL
[3]
  IC50: 0.304 µg/mL
  IC80: 3.06 µg/mL
[4]
  IC50: 0.351 µg/mL
  IC80: 1.88 µg/mL
[5]
  IC50: 3.98 µg/mL
  IC80: > 10 µg/mL
[6]
  IC50: 1.35 µg/mL
  IC80: 8.13 µg/mL
[7]
  IC50: 0.081 µg/mL
  IC80: 1.32 µg/mL
[8]
  IC50: 1.67 µg/mL
  IC80: 10 µg/mL
[9]
  IC50: 1.16 µg/mL
  IC80: 6.76 µg/mL

## VRC07 (antibody)
[27]
  IC50: 0.018 µg/mL
  IC80: 0.087 µg/mL
[28]
  IC50 (Titer in TZM.bl cells): 0.121 µg/mL
  IC80 (Titer in TZM.bl cells): 0.444 µg/mL
[29]
  IC50: 0.039 µg/mL
  IC80: 0.239 µg/mL
[11]
  IC50 (Titer in TZM.bl cells): 5.92 µg/mL
  IC80 (Titer in TZM.bl cells): 38 µg/mL
[30]
  IC50: 0.042 µg/mL
  IC80: 0.193 µg/mL
[12]
  IC50 (Titer in TZM.bl cells): > 50 µg/mL
  IC80 (Titer in TZM.bl cells): > 50 µg/mL
[31]
  IC50: 0.063 µg/mL
  IC80: 0.226 µg/mL
[32]
  IC50 (Titer in TZM.bl cells): 0.011 µg/mL
  IC80 (Titer in TZM.bl cells): 0.069 µg/mL
[33]
  IC50: 1.21 µg/mL
  IC80: 6.15 µg/mL
[34]
  IC50: 0.239 µg/mL
  IC80: 1.46 µg/mL
[17]
  IC50 (Titer in TZM.bl cells): 0.015 µg/mL
  IC80 (Titer in TZM.bl cells): 0.051 µg/mL
[18]
  IC50 (Titer in TZM.bl cells): 0.219 µg/mL
  IC80 (Titer in TZM.bl cells): 1.03 µg/mL
[35]
  IC50: 0.032 µg/mL
  IC80: 0.117 µg/mL
[36]
  IC50: 0.128 µg/mL
  IC80: 0.84 µg/mL
[37]
  IC50 (Titer in TZM.bl cells): 0.054 µg/mL
  IC80 (Titer in TZM.bl cells): 0.479 µg/mL

## N49P18.1 (antibody)
[38]
  IC50: 39.7 µg/mL
  IC80: > 50 µg/mL
  MPI: 56
[10]
  IC50: 4.44 µg/mL
  IC80: 14.7 µg/mL
  MPI: 99
[13]
  IC50: 4.15 µg/mL
  IC80: 11.6 µg/mL
  MPI: 98
[14]
  IC50: 4.25 µg/mL
  IC80: 11.7 µg/mL
  MPI: 99
[15]
  IC50: 1.88 µg/mL
  IC80: 6.81 µg/mL
  MPI: 100
[16]
  IC50: 6.35 µg/mL
  IC80: 17.7 µg/mL
  MPI: 98
[19]
  IC50: 4.27 µg/mL
  IC80: 15.5 µg/mL
  MPI: 98
[20]
  IC50: 4.16 µg/mL
  IC80: 19.8 µg/mL
  MPI: 98
[21]
  IC50: > 50 µg/mL
  IC80: > 50 µg/mL
  MPI: 23
[22]
  IC50: 4.92 µg/mL
  IC80: 18.3 µg/mL
  MPI: 97
[23]
  IC50: 12.5 µg/mL
  IC80: 49.8 µg/mL
  MPI: 84
[24]
  IC50: 38.4 µg/mL
  IC80: > 50 µg/mL
  MPI: 57
[25]
  IC50: 10.3 µg/mL
  IC80: 24.8 µg/mL
  MPI: 92

From US20240117018A1
